Source: US20070292347A1 (LONDON HEALTH SCIENCES CENTRE RESEARCH, published 2007)
Square brackets hold non-standard residues; d marks the D form. Ends that are not written are not given here. Cit = NC(=O)NCCC[C@H](N)C(=O)O

B1: Vim 65-77, human vimentin peptide 65-77 (peptide)
peptide: SAVRARSSVPGVR
notes: Synthetic peptide (Genemed Synthesis); also called Vimentin 65-77; unmodified vimentin peptide
B2: Vim R70Cit, altered human vimentin peptide 65-77 (peptide)
peptide: SAVRA[Cit]SSVPGVR
notes: Synthetic peptide; also called Vimentin R70Cit; citrulline containing vimentin peptide

Tests used:
[1] = molecular target: T1, purified HLA-DRB1*0301 molecule (human); assay: peptide competition assay on purified MHC class II
T1 construct: Purified MHC class II molecule
From the text: (§1) Results are expressed as the inverse of the IC₅₀ values measured in nM.

[2] = molecular target: T2, purified HLA-DRB1*1302 molecule (human); assay: peptide competition assay on purified MHC class II
T2 construct: Purified MHC class II molecule
From the text: as §1

[3] = molecular target: T3, purified HLA-DRB1*0802 molecule (human); assay: peptide competition assay on purified MHC class II
T3 construct: Purified MHC class II molecule
From the text: as §1

[4] = molecular target: T4, purified HLA-DRB1*1101 molecule (human); assay: peptide competition assay on purified MHC class II
T4 construct: Purified MHC class II molecule
From the text: as §1

[5] = molecular target: T5, purified HLA-DRB1*0101 molecule (human); assay: peptide competition assay, displacement of radio-labelled peptide probe from purified MHC class II
T5 construct: Purified MHC class II molecule
From the text: as §1

[6] = molecular target: T6, purified HLA-DRB1*0404 molecule (human); assay: as above
T6 construct: Purified MHC class II molecule
From the text: as §1

[7] = molecular target: T7, purified HLA-DRB1*0401 molecule (human); assay: as above
T7 construct: Purified MHC class II molecule
From the text: as §1

Binder	binding result [1]	binding result [2]	binding result [3]	binding result [4]	fold higher affinity compared to the unmodified peptide (Vim 65-77) [5]	fold higher affinity compared to the unmodified peptide (Vim 65-77) [6]	fold higher affinity compared to the unmodified peptide (Vim 65-77) [7]
B1	binds	binds	binds	binds			
B2					100 fold	20 fold	90 fold
